According to paper doi:10.1101/2025.03.12.642038, “Structural, biophysical and biological analysis and characterisation of IRF4 DNA-binding domain mutations associated with multiple myeloma”:

What was measured:
Assay in all cases: SPR two-state kinetic; FP: PBS + 0.05% Tween20, 5 nM DNA, 1 h, room temperature; SPR: Biacore S200, SA chip, protein 0.1-4500 nM, running buffer not given in material; errors are SD
[1] = biological target: T1, IRF4 DBD C99S (Homo sapiens, UniProt Q15306 20-132, C99S); conditions: protein: recombinant; label: 3' biotin; hairpin, TTTT loop
T1 sequence: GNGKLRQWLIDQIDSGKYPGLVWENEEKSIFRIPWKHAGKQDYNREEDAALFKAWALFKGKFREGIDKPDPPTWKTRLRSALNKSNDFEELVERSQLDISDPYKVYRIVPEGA

[2] = biological target: T2, IRF4 DBD D106Y (Homo sapiens, UniProt Q15306 20-132, D106Y); conditions: protein: recombinant; tags: N-terminal His8-linker-His8-TEV, cleaved; label: 3' biotin; hairpin, TTTT loop
T2 sequence: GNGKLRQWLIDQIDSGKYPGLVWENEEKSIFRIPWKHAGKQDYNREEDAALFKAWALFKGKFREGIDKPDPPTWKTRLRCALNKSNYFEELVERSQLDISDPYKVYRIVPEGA

[3] = biological target: T3, IRF4 DBD D117H (Homo sapiens, UniProt Q15306 20-132, D117H); conditions: protein: recombinant; tags: N-terminal His8-linker-His8-TEV, cleaved; label: 3' biotin; hairpin, TTTT loop
T3 sequence: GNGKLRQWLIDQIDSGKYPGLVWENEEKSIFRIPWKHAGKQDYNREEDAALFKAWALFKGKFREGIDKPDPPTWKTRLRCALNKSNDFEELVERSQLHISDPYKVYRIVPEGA

[4] = biological target: T4, IRF4 DBD C99A (Homo sapiens, UniProt Q15306 20-132, C99A); conditions: protein: recombinant; tags: N-terminal His8-linker-His8-TEV, cleaved; label: 3' biotin; hairpin, TTTT loop
T4 sequence: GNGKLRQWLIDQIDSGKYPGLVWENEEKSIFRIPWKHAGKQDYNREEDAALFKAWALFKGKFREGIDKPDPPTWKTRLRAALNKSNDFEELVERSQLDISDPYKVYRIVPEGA

[5] = biological target: T5, IRF4 DBD T95R (Homo sapiens, UniProt Q15306 20-132, T95R); conditions: protein: recombinant; tags: N-terminal His8-linker-His8-TEV, cleaved; label: 3' biotin; hairpin, TTTT loop
T5 sequence: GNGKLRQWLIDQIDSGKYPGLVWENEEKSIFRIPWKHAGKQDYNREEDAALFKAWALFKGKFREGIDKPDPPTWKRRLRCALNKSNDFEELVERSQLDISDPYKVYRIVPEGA

[6] = biological target: T6, IRF4 DBD L70V (Homo sapiens, UniProt Q15306 20-132, L70V); conditions: protein: recombinant; tags: N-terminal His8-linker-His8-TEV, cleaved; label: 3' biotin; hairpin, TTTT loop
T6 sequence: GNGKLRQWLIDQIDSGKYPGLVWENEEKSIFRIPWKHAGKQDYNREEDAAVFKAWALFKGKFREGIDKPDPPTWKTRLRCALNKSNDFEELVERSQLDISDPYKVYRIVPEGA

Binder: CTTGGTTTCACTTCCTGCGTTTTCGCAGGAAGTGAAACCAAG (structured_DNA) [IRE hairpin (biotin)]
- Kd [1]: 139 ± 43 nM
- Kd [2]: 135 ± 121 nM
- Kd [3]: 204 ± 131 nM
- Kd [4]: 61 ± 29 nM
- Kd [5]: 481 ± 149 nM
- Kd [6]: 121 ± 111 nM
